In patent publication US20250163449A1, “HERBICIDE-TOLERANT GENES AND METHOD FOR USING SAME” (QINGDAO KINGAGROOT CHEMICAL COMPOUND CO., LTD., priority 2022, published 2025):
Changes are numbered by the printed parent chain. Names and notes keep the numbering of the source.

B1: SEQ ID NO: 38: RdpA mutant L82H + V187L + F182W + R104G (protein)
chain: MHAALSPLSQRFERIAVQPLTGVLGAEITGVDLREPLDDSTWNEILDAFHTYQVIYFPGQAITNEQHIAFSRRFGPVDPVPHLKSIEGYPEVQMIRREANESGGVIGDDWHTDSTFLDAPPAAVVMRAIDVPEHGGDTGFLSMYTAWETLSPTMQATIEGLNVVHSATRVFGSLYQAQNRRWSNTSLKVMDVDAGDRETVHPLVVTHPGSGRKGLYVNQVYCQRIEGMTDAESKPLLQFLYEHATRFDFTCRVRWKKDQVLVWDNLCTMHRAVPDYAGKFRYLTRTTVGGVRPAR
B2: SEQ ID NO: 118: RdpA mutant L82H + V187L + F182W + R104G + V77I (protein)
chain: B1 chain with V77I
B3: SEQ ID NO: 54: RdpA mutant L82H + V187L + F182W + R104G + R180W (protein)
chain: B1 chain with R180W
B4: SEQ ID NO: 58: RdpA mutant L82H + V187L + F182W + R104G + R180M (protein)
chain: B1 chain with R180M
B5: SEQ ID NO: 50: RdpA mutant L82H + V187L + F182W + R104G + V80T (protein)
chain: B1 chain with V80T
B6: SEQ ID NO: 122: RdpA mutant L82H + V187L + F182W + G103L + R104G + V105Y (protein)
chain: B1 chain with G103L, V105Y
B7: SEQ ID NO: 102: RdpA mutant L82H + V187L + F182W + G103L + T112A (protein)
chain: B1 chain with G103L, G104R, T112A
B8: SEQ ID NO: 86: RdpA mutant L82H + V187L + F182W + G103L + R180S (protein)
chain: B1 chain with G103L, G104R, R180S
B9: SEQ ID NO: 106: RdpA mutant L82H + V187L + F182W + G103L + T112S (protein)
chain: B1 chain with G103L, G104R, T112S
B10: SEQ ID NO: 82: RdpA mutant L82H + V187L + F182W + G103L + R180E (protein)
chain: B1 chain with G103L, G104R, R180E
B11: SEQ ID NO: 126: RdpA mutant L82H + V187L + F182W + R104G + T112S + R180K (protein)
chain: B1 chain with T112S, R180K
B12: SEQ ID NO: 6 (protein)
chain: B1 chain with G104R, W182F
B13: SEQ ID NO: 1: Amino acid sequence of RdpA (wild-type R-dichlorprop dioxygenase) (protein)
chain: B1 chain with H82L, G104R, W182F, L187V
modifications: Sphingobium herbicidovorans
B14: SEQ ID NO: 2 (protein)
chain: B1 chain with G104R, W182F, L187V
B15: SEQ ID NO: 134 (protein)
chain: B1 chain with T112S, R180W
B16: SEQ ID NO: 130 (protein)
chain: B1 chain with T112S, R180M
B17: SEQ ID NO: 114 (protein)
chain: B1 chain with G103L, G104R, F247Y
B18: SEQ ID NO: 78: RdpA mutant L82H + V187L + F182W + G103L + R180D (protein)
chain: B1 chain with G103L, G104R, R180D
B19: SEQ ID NO: 110 (protein)
chain: B1 chain with G103L, G104R, T112M
B20: SEQ ID NO: 98: RdpA mutant L82H + V187L + F182W + G103L + V80T (protein)
chain: B1 chain with V80T, G103L, G104R
B21: SEQ ID NO: 94 (protein)
chain: B1 chain with G103L, G104R, R180W

Test system: not listed separately
Experiment: Enzymatic kinetic measurements of purified proteins with compound A as substrate
Format: biochemical
Conditions: purified protein, compound A 0-1000 μM as substrate
Procedure: Based on the results of HPLC, representative engineered proteins were selected for protein purification. Further protein characterization, such as Km, Vmax and Kcat, was performed on the 8 engineered proteins from Table 2. Conventional Ni column affinity chromatography was used for protein purification and protein extract purity was assessed by SDS-PAGE analysis. After determining protein concentration by BCA method, enzyme activity was determined.

| Molecule | Kcat | Km | Vmax |
| --- | --- | --- | --- |
| B1 | 0.43 S^−1 | 54.6 µM | 49.9 |
| B2 | 0.43 S^−1 | 83.7 µM | 99.5 |
| B3 | 0.35 S^−1 | 96.9 µM | 81 |
| B4 | 0.05 S^−1 | 28.3 µM | 12.3 |
| B5 | 0.07 S^−1 | 24.9 µM | 15.7 |
| B6 | 1.1 S^−1 | 96.4 µM | 127.9 |

Test system: rice (Jinjing 818)
Experiment: Transgenic rice seedlings, compound B added to medium at rooting phase
Format: in vivo
Conditions: at least 1 μM compound B in medium (0.5 and 1 μM for SEQ ID NO: 42), 17-26 days
Procedure: Plant transformation vectors were constructed, each comprising a recombinant DNA molecule encoding an engineered protein (SEQ ID NO: 42/38/82/86/102/106/126/138/142) with the protein-coding sequence optimized for monocot expression, and rice (Jinjing 818) calli were transformed with these vectors using Agrobacterium tumifaciens and standard methods known in the art. Different concentrations of hormone herbicide compound B were added at the rooting phase of the rice seedlings to test hormone resistance, wherein, the test results of control Jinjing 818 plants and transgenic Jinjing 818 plants comprising the protein-coding gene of SEQ ID NO: 42 after adding 0.5 μM and 1 μM compound B to medium for 19 days are shown in FIG. 1. The test results of control Jinjing 818 plants and transgenic Jinjing 818 plants comprising the protein-coding genes of SEQ ID NO: 38/82/86/102/106/126/138/142 after adding 1 μM compound B to medium are shown in FIG. 5-11.

| Molecule | drug resistance (tolerance to compound B) compared with wild-type plants |
| --- | --- |
| B1 | exhibited better drug resistance |
| B7 | exhibited better drug resistance |
| B8 | exhibited better drug resistance |
| B9 | exhibited better drug resistance |
| B10 | exhibited better drug resistance |
| B11 | exhibited better drug resistance |

Test system: not listed separately
Experiment: Conversion rate of substrate compound A by E. coli expressing each engineered protein (HPLC, oxygenase activity)
Format: biochemical
Conditions: Reaction condition 1: bacteria cultured overnight, substrate compound A and IPTG added to react overnight
Description: The high-throughput bacterial protein expression was achieved by cloning the synthesized gene that encodes each engineered protein into a bacterial expression vector with a C-terminal histidine tag (His-tag). The vectors were transformed into Escherichia coli (E. coli), and expression of the engineered proteins was induced. E. coli cultures were selected and cultured in centrifuge tubes overnight, meanwhile, added with substrates and IPTG, and the cultures were centrifuged to pellet the bacteria the next day. Alternatively, E. coli cultures were selected and cultured in centrifuge tubes overnight, and centrifuged to pellet the bacteria after adding substrates for reaction the next day. The supernatant of reaction solution was pipetted into a 96-well plate and the absorbance at 510 nm from 4-aminoantipyrine and potassium ferricyanide was measured by an endpoint colorimetric method to detect phenol products. Substrate reduction and product yield were measured by high performance liquid chromatography (HPLC) to detect the oxygenase activity (i.e., enzymatic activity) of the engineered proteins, and the activities of the proteins were compared by calculating conversion rates.
Conversion rate=(Peak area of initial substrate−Peak area of substrate after reaction)/Peak area of initial substrate*100%

| Molecule | Conversion rate |
| --- | --- |
| B1 | 96.9% |
| B2 | 95.8% |
| B3 | 92.5% |
| B12 | 95.2% |
| B4 | 90% |
| B13 | 0.06% |
| B5 | 97.2% |
| B6 | 94.3% |
| B14 | 67.5% |

Same assay, conditions: Reaction condition 2: bacteria cultured overnight, 8 times dose of substrate compound A of condition 1 added, react 3 hours the next day

| Molecule | Conversion rate |
| --- | --- |
| B15 | 77.6% |
| B16 | 88.3% |
| B17 | 53% |
| B7 | 93.2% |
| B18 | 79% |
| B8 | 76.8% |
| B19 | 54.6% |
| B9 | 86.3% |
| B10 | 71.6% |
| B13 | 0.06% |
| B11 | 92.6% |
| B20 | 81% |
| B21 | 63.2% |

Test system: rice (Jinjing 818)
Experiment: Transgenic rice T0 plantlets in greenhouse sprayed with compound B
Format: in vivo
Conditions: medicated medium test and greenhouse spraying test for T0 generation, compound B
Procedure: Then, the obtained regenerated TO generation transgenic plantlets grew in the greenhouse, and were sprayed with compound B at the growth stage when approximately two leaves unfolded and the third one just appearing. Resistance levels of plants were recorded and evaluated after spraying treatment, wherein, the test results of control Jinjing 818 plants and transgenic Jinjing 818 plants comprising the protein-coding gene of SEQ ID NO: 42 after applying 20 g, 40 g, 60 g, 80 g, 100 g, 120 g/mu (1 mu=1/15 ha) compound B for corresponding days (DAT) are shown in FIG. 2.

| Molecule | tolerance compared with the wild types (summary) |
| --- | --- |
| B1 | exhibited apparent tolerance |
| B7 | exhibited apparent tolerance |
| B8 | exhibited apparent tolerance |
| B9 | exhibited apparent tolerance |
| B10 | exhibited apparent tolerance |
| B11 | exhibited apparent tolerance |

Test system: Arabidopsis thaliana
Experiment: T2 transgenic Arabidopsis thaliana seeds screened on compound A medium
Format: in vivo
Conditions: 0.15 μM compound A in medium, 11-24 days
Description: Engineered proteins were selected for Arabidopsis thaliana transformation and plant analysis. DNA constructs were transformed into Arabidopsis thaliana using Agrobacterium tumifaciens and standard methods known in the art.
The transformed TO transgenic plantlets grew in the greenhouse. T1 generation Arabidopsis thaliana plant seeds produced by transformation of all constructs were collected after approximately 60 days of growth. Transgenic T1 generation Arabidopsis thaliana plants were screened by adding HYG to medium for T1 generation. T1 plants were selfed to produce seeds of T2 generation Arabidopsis thaliana plants. Wherein, compound A was added to medium to screen and test T2 generation Arabidopsis thaliana plant seeds, that were produced by all constructs, comprising unique events screened by T1 generation.

| Molecule | drug resistance compared with wild-type Arabidopsis thaliana (longer roots and larger leaves) |
| --- | --- |
| B7 | exhibited better drug resistance |
| B18 | exhibited better drug resistance |
| B8 | exhibited better drug resistance |
| B10 | exhibited better drug resistance |
| B11 | exhibited better drug resistance |
| B20 | exhibited better drug resistance |
